{
  "source": "patent US20060110789",
  "proteins": {"B1": {"name": "(5)M3+TE (module 3 of DEBS with the N-terminal linker of module 5, fused to thioesterase) (protein)", "chain": "MSGDNGMTEEKLRRYLKRTVTELDSVTARLREVEHRAGIAIVSMACRLPGGVNTPQRLWELLREGGETLSGFPTDRGWDLARLHHPDPDNPGTSYVDKGGFLDDAAGFDAEFFGVSPREAAAMDPQQRLLLETSWELVENAGIDPHSLRGTATGVFLGVAKFGYGEDTAAAEDVEGYSVTGVAPAVASGRISYTMGLEGPSISVDTACSSSLVALHLAVESLRKGESSMAVVGGAAVMATPGVFVDFSRQRALAADGRSKAFGAGADGFGFSEGVTLVLLERLSEARRNGHEVLAVVRGSALNQDGASNGLSAPSGPAQRRVIRQALESCGLEPGDVDAVEAHGTGTALGDPIEANALLDTYGRDRDADRPLWLGSVKSNIGHTQAAAGVTGLLKVVLALRNGELPATLHVEEPTPHVDWSSGGVALLAGNQPWRRGERTRRARVSAFGISGTNAHVIVEEAPEREHRETTAHDGRPVPLVVSARTTAALRAQAAQIAELLERPDADLAGVGLGLATTRARHEHRAAVVASTREEAVRGLREIAAGAATADAVVEGVTEVDGRNVVFLFPGQGSQWAGMGAELLSSSPVFAGKIRACDESMAPMQDWKVSDVLRQAPGAPGLDRVDVVQPVLFAVMVSLAELWRSYGVEPAAVVGHSQGEIAAAHVAGALTLEDAAKLVVGRSRLMRSLSGEGGMAAVALGEAAVRERLRPWQDRLSVAAVNGPRSVVVSGEPGALRAFSEDCAAEGIRVRDIDVDYASHSPQIERVREELLETTGDIAPRPARVTFHSTVESRSMDGTELDARYWYRNLRETVRFADAVTRLAESGYDAFIEVSPHPVVVQAVEEAVEEADGAEDAVVVGSLHRDGGDLSAFLRSMATAHVSGVDIRWDVALPGAAPFALPTYPFQRKRYWLQPAAPAAASDELAYRVSWTPIEKPESGNLDGDWLVVTPLISPEWTEMLCEAINANGGRALRCEVDTSASRTEMAQAVAQAGTGFRGVLSLLSSDESACRPGVPAGAVGLLTLVQALGDAGVDAPVWCLTQGAVRTPADDDLARPAQTTAHGFAQVAGLELPGRWGGVVDLPESVDDAALRLLVAVLRGGGRAEDHLAVRDGRLHGRRVVRASLPQSGSRSWTPHGTVLVTGAASPVGDQLVRWLADRGAERLVLAGACPGDDLLAAVEEAGASAVVCAQDAAALREALGDEPVTALVHAGTLTNFGSISEVAPEEFAETIAAKTALLAVLDEVLGDRAVEREVYCSSVAGIWGGAGMAAYAAGSAYLDALAEHHRARGRSCTSVAWTPWALPGGAVDDGYLRERGLRSLSADRAMRTWERVLAAGPVSVAVADVDWPVLSEGFAATRPTALFAELAGRGGQAEAEPDSGPTGEPAQRLAGLSPDEQQENLLELVANAVAEVLGHESAAEINVRRAFSELGLDSLNAMALRKRLSASTGLRLPASLVFDHPTVTALAQHLRICCAGTAAISGPHEFTRLAGALRGIAPVRAVPQPGYEEGEPLPSSMAAVAAVQADAVIRTQGDKPFVVAGHSAGALMAYALATELLDRGHPPRGVVLIDVYPPGHQDAMNAWLEELTATLFDRETVRMDDTRLTALGAYDRLTGQWRPRETGLPTLLVSAGEPMGPWPDDSWKPTWPFEHDTVAVPGDHFTMVQEHADAIARHIDAWHHHHHH"}},
  "key": {"[1]": {"target": "T1, diketide-ACP2(4) (DEBS ACP2 with the C-terminal linker of module 4, loaded with diketide), Q03131", "T1 chain": "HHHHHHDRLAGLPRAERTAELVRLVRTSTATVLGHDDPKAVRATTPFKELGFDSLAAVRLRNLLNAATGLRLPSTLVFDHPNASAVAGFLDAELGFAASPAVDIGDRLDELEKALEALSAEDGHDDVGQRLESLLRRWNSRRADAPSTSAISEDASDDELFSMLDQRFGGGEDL"}, "[2]": {"target": "T2, diketide-ACP4(4) (DEBS ACP4 with its natural C-terminal linker, loaded with diketide), Q03132", "T2 chain": "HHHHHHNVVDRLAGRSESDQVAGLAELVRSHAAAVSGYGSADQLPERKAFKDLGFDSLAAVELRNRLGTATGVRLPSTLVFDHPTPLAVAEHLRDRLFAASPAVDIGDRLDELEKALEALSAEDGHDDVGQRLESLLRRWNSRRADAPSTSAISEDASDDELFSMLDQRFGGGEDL"}},
  "data": [
    {"protein": "B1", "values": [
      {"measurement": "KM of transfer and elongation, fold increase against the natural linker pair (diketide-ACP2(2) with (3)M3+TE)", "setting": "[1]", "value": "increases the KM for the ACP2-module 3 reaction by approximately 7-fold"},
      {"measurement": "kcat/KM", "setting": "[1]", "value": "the kcat/KM value decreases to 56 min^-1mM^-1"},
      {"measurement": "kcat/KM, fold decrease against the matched reaction (FIG. 27 C)", "setting": "[2]", "value": "fell approximately 3-5 fold and 80-200 fold, respectively"},
      {"measurement": "triketide lactone formation at 20 µM substrate (FIG. 27 C)", "setting": "[2]", "value": "transfer of diketide from the donor ACP to the acceptor module occurred at 20 µM substrate concentration"}
    ]}
  ]
}
